Tests used:
activin-A = target: T1, activin-A (Mus musculus, UniProt Q04998); experiment: Serum activin-A levels in inh-KO mice (ELISA); assay type: in vivo; conditions: single dose 30 mg/kg SC
T1 construct: from tissue; host or cells: serum of inhibin-alpha knockout (inh-KO) mice and wild-type littermates
T1 sequence (Q04998 309-424): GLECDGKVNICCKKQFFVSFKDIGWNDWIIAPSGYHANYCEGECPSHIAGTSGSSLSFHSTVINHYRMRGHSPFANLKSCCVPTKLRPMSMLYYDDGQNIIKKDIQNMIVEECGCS
Procedure: (§1) 12-week-old female and 8-week-old male inh-KO mice with fully established ovarian or testicular tumors received a single injection of PBS or sActRIIB (30 mg/kg, SC). As a control, age-matched wild-type littermates received a single injection of PBS. Ovarian and testicular organ weights were determined by necropsy 14 days after the injection.
All serum samples from ovarian cancer patients and healthy subjects were collected under informed consent and were purchased from Bioreclamation, Inc. The serum samples were diluted in buffer (DY995, R&D Systems) and pretreated overnight at 4° C. with 4 M urea (Sigma) to dissociate any protein bound to activin-A. The samples were then transferred to 96 well plates pre-coated with an activin-A monoclonal antibody. After 2 hr incubation at room temperature and a washing step (0.05% Tween 20 in DPBS), a biotin-labeled activin-A monoclonal antibody was added for 1 hr at room temperature. […] An acidic stopping solution (KPL) was added and the degree of enzymatic turnover of the substrate was determined by wavelength absorbance measurement at 450 nm. The absorbance measured is directly proportional to the concentration of activin-A present. A standard curve of absorbance versus activin-A concentration was used to determine the amount of Activin-A in the test sample. Serum activin-A levels in inh-KO mice were measured by using ELISA.

VEGF [1] = experiment: VEGF immunostaining in TOV-21G xenograft tumor sections; assay type: in vivo, mouse; conditions: treated vs untreated sections (strong immunostaining); FIG. 15A
Procedure: (§2) 5×10^6 TOV-21G ovarian cancer cells were implanted subcutaneously into individual female athymic nu/nu mice (Harlan). Treatment was initiated at day 12 after tumor implantation, when the average tumor volume reached approximately 150 mm^3. The mice received PBS, sActRIIB (30 mg/kg, SC, 1×/week) or activin-A antibody (30 mg/kg, SC, 2×/week). In a separate chemotherapy combination experiment, the mice were treated with PBS, sActRIIB (10 mg/kg, SC, 1×/week), 5-FU (50 mg/kg, IP, 3 cycles, 4 daily injections per cycle) or sActRIIB and 5-FU combination at the same doses above.
(§3) Zinc-formalin fixed paraffin tumor tissue sections of 4 μm in thickness were prepared. The sections were subjected to antigen retrieval by microwave 3 min in Unmask solution (Vector H-3300) followed by incubation in 10 μg/ml Proteinase-K for 20 min and in 1% H2O2 in dH2O for 10 min at room temperature. The sections were further incubated in 0.1% Tween-20 in PBS for 3 min to permeabilize the cell membrane and in goat serum for 30 min to block non-specific binding. The sections were then incubated at room temperature with specific primary antibody for 3 hours followed by incubation in biotinylated or fluorescently labeled secondary antibody. […] The immunostained tissue sections were analyzed and photographed using a Nikon Eclipse 90i microscope equipped with DS-Ril camera. […]

E-cadherin = E-cadherin in ovarian tumors of inh-KO mice (Western blot, immunostaining); assay type: in vivo, mouse
Procedure: as §1
(§4) Protein extracts were prepared from cell cultures or tissues in T-PER tissue protein extraction reagent (Pierce) containing a mixture of protease inhibitors (Roche). A pool of 50 μg total protein for each group containing equal amounts of protein extract isolated from individual animals was separated by NuPAGE 4-12% Bis-Tris gel (Invitrogen) and transferred to PVDF. The membranes were probed with primary antibodies against total Smad2, p-Smad2 or E-cadherin (1:1000; Cell Signaling), endoglin, osteopontin (1:500; R&D Systems), IGFBP-1, IGFBP-2 (1:500; Abcam) followed by HRP-conjugated secondary antibody (1:2000; Cell Signaling). The membranes were stripped and re-probed with antibody against α-tubulin (1:1000; Cell Signaling).
Zinc-formalin fixed paraffin tumor tissue sections of 4 μm in thickness were prepared. […] The immunostained tissue sections were analyzed and photographed using a Nikon Eclipse 90i microscope equipped with DS-Ril camera. […]

caspase-3 [2] = experiment: Active caspase-3 immunostaining in TOV-21G xenograft tumor sections; assay type: in vivo, mouse; conditions: FIG. 15C
Procedure: as §2, §3

endoglin = experiment: Western blot of endoglin in ovarian tumors of inh-KO mice; assay type: in vivo, mouse; conditions: FIG. 8D
Procedure: as §1, §4

activin-A (βA) mRNA = experiment: Endogenous activin-A (βA) mRNA in cell cultures (real-time RT-PCR); assay type: cell-based, human, bovine; conditions: TOV21G, BAEC, MRC-5, CCD-Lu, U937 and THP-1 cultures treated with recombinant activin-A, without or with sActRIIB; FIG. 18
VEGF [3] = experiment: VEGF release into culture medium (ELISA); assay type: cell-based, human; conditions: TOV21G, MRC-5, CCD-Lu and TPH-1 cells treated with activin-A, without or with sActRIIB; FIG. 17A
Procedure: The serum VEGF levels in inh-KO mice were measured by using immunoassay kit (R&D Systems), and the levels of human VEGF and Ang-1 in cell line culture medium were quantified using ELISA kits purchased from Invitrogen (VEGF) and R&D Systems (Ang-1), by following the manufacturers' recommended protocols.

[4] = tested on: testicular tumors in inh-KO mice; experiment: Testicular tumor mass in inh-KO mice (necropsy); assay type: in vivo, mouse; conditions: 8-week-old male inh-KO mice; single dose 30 mg/kg SC; necropsy 14 days after injection; FIG. 4A, 4B
Procedure: as §1

caspase-3 [5] = experiment: Active caspase-3 immunostaining in gonadal tumor sections of inh-KO mice; assay type: in vivo, mouse; conditions: ovarian and testicular tissue sections of inh-KO mice, regions of residual tumor cells; FIG. 9
Procedure: as §1
Zinc-formalin fixed paraffin tumor tissue sections of 4 μm in thickness were prepared. The sections were subjected to antigen retrieval by microwave 3 min in Unmask solution (Vector H-3300) followed by incubation in 10 μg/ml Proteinase-K for 20 min and in 1% H2O2 in dH2O for 10 min at room temperature. The sections were further incubated in 0.1% Tween-20 in PBS for 3 min to permeabilize the cell membrane and in goat serum for 30 min to block non-specific binding. The sections were then incubated at room temperature with specific primary antibody for 3 hours followed by incubation in biotinylated or fluorescently labeled secondary antibody. Substrate developed in Vector SG kit (SK-4700) or DAB and nuclear-counterstained in Vector Fast Red (H-3403) or in hematoxylin. The immunostained tissue sections were analyzed and photographed using a Nikon Eclipse 90i microscope equipped with DS-Ril camera. […]

IGFPB-2 = experiment: Western blot of IGFBP-2 in ovarian tumors of inh-KO mice; assay type: in vivo, mouse; conditions: FIG. 8D
Procedure: as §1, §4

B1: sActRIIB: extracellular domain of human activin type-2B receptor fused to IgG2 Fc, expressed in CHO cells; sequence in the 26th table (protein)
chain: ETRWCIYYNANWELERTNQGLERCEGEQDKRLHCYASWRNSSGTIELVKKGCWLDDFNCYDRQECVATEENPQVYFCCCEGNFCNERFTHLPEAGGPEVTYEPPPTAPTGGGGSVECPPCPAPPVAGPSVFLFPPKPKDTLMISRTPEVTCVVVDVSHEDPEVQFNWYVDGVEVHNAKTKPREEQFNSTFRVVSVLTVVHQDWLNGKEYKCKVSNKGLPAPIEKTISKTKGQPREPQVYTLPPSREEMTKNQVSLTCLVKGFYPSDIAVEWESNGQPENNYKTTPPMLDSDGSFFLYSKLTVDKSRWQQGNVFSCSVMHEALHNHYTQKSLSLSPGK
modifications: left off: a dimerising Fc or GST
- serum activin-A levels (activin-A; inh-KO mice with established gonadal tumors, within one day after administration, FIG. 2A, 2B): reduced the elevated activin-A in the inh-KO mice to normal control levels
- duration of activin-A-neutralizing effect (activin-A; inh-KO mice): persisted throughout the 14-day study period
- VEGF immunostaining in TOV-21G tumor sections (VEGF [1]): virtually none
- E-cadherin immunoreactivity in ovarian sections (E-cadherin; FIG. 6B): reappearance of distinctive E-cadherin immunoreactivity
- E-cadherin protein in ovarian tumors (Western blot) (E-cadherin; single injection, FIG. 6A): dramatically restored the lost E-cadherin
- active caspase-3 in TOV-21G tumors (caspase-3 [2]): profound increases
- endoglin induction (Western blot) (endoglin): abolished completely
- endogenous βA mRNA expression (activin-A (βA) mRNA): blocked completely
- release of VEGF into the culture medium (VEGF [3]): blocked completely
- testicular tumor mass [4]: dramatic regression of testicular tumor masses to the WT control levels
- active caspase-3 immunostaining (caspase-3 [5]): strong immunostaining of active caspase-3
- IGFPB-2 induction (Western blot) (IGFPB-2): abolished completely
